From the Human Domainome abundance scans (Beltran et al. 2025)

B1: Homeobox protein cut-like 1, residues 941 to 1008; numbered along this chain, P39880 (parent)
chain: QEVDTIELTRQVKEKLAKNGICQRIFGEKVLGLSQGSVSDMLSRPKPWSKLTQKGREPFIRMQLWLNG

Variants of: B1
Assay: abundance fitness (aPCA) (normalised: wild type 0, dead -1); higher = more abundant; growth selection in yeast, the domain comes from the species named
Details: Homo sapiens

Abundance fitness of substitutions, site by site:
Q23: F -0.265; N -0.133; Y -0.162; K -0.245; V -0.321; T -0.104; G -0.28; A -0.161; W -0.044; D -0.429; H -0.117; S -0.029; I -0.537; C -0.281
S37: E 0.052; M -0.126; D 0.251; Q 0.111; F -0.014; C 0.066; R -0.099; N -0.033; I -0.076; V -0.039; T -0.104; W -0.108; P -0.189; G -0.123; A 0.118; Y -0.173
S39: R 0.007; I 0.037; F -0.156; N 0.029; W -0.28; M 0.01; T 0.003; E 0.031; V -0.073; Q -0.007; A 0.005; Y -0.094; P -0.126; D -0.04; G 0.019; K 0.039
C22: S 0.049; Q -0.256; E -0.155; K -0.229; N -0.192; T 0.02; F -0.133; M -0.062; P -0.069; W -0.161; Y -0.28; L -0.102; G -0.27; V -0.196; H -0.006; R -0.16
M41: S -0.263; K -0.089; G -0.239; I -0.016; V -0.007; D -0.194; Y -0.011; P -0.289; F 0.003; L 0.027; E -0.335; A 0.023; Q -0.171; N -0.275; T -0.107; W 0.022; C 0.009; H -0.291
F26: T -0.796; N -0.991; Y -0.741; D -1.05; I -0.45; S -0.704; K -0.45; M -0.459; L -0.312; G -0.622; Q -0.721; W 0.03; R -0.526; H -0.927; E -0.883; A -0.649; C -0.709; P -0.574; V -0.648
Q35: F 0.044; L -0.003; E 0.124; A 0.039; Y 0.015; D 0.066; N -0.353; P 0.121; H -0.024; I -0.116; T 0.01; S 0.034; G -0.003; M -0.033; K -0.016; W 0.064; V 0
G32: H -0.096; R -0.029; F -0.313; Y -0.415; C -0.266; M -0.226; D -0.311; Q -0.138; P -0.21; I -0.584; E -0.411; W -0.377; L -0.273; A -0.096; S -0.195; N -0.204; V -0.645; K -0.1; T -0.29
E28: Y -0.229; Q -0.127; D -0.307; F -0.195; T -0.041; N -0.134; A -0.036; K -0.106; P -0.145; W -0.104; C -0.286; V -0.214; H -0.197; R -0.026; G -0.072; I -0.277; L -0.113
L33: Y -0.229; M -0.045; G -0.219; F -0.134; P -0.49; E -0.262; A -0.079; H -0.174; K -0.092; R -0.213; V 0.025; W -0.115; T -0.06; I 0.144; Q -0.232
